Paper PMC6800183 (Journal of biological inorganic chemistry : JBIC : a …, 2019)
Where a chain is given by its changes, count along the chain named. Names may count otherwise.

B1: Aft2(1–204) C187A (domain or fragment, S. cerevisiae, UniProt Q08957 1-204, looked up)
chain: MKAKSMKSIISVPISVSKTGKMKLTASPDNLASMMSKDQNKLIHLDPVPSFEDRHEIKPWLQKIFYPQGIDIVIERSDSSKVTFKCRSVRSKVGLNPKSKGSSSRSHACPFRIRAAYSVRLQKWNVVVMNNIHSHELRFDLITKTDDYKKFKENLRQKNDEKAIKTFDELEYKASLNLPLVTPIISADCGLTKEIEAFNNIFLP
B2: Aft2(1–204) C189A (domain or fragment, S. cerevisiae, UniProt Q08957 1-204, looked up)
chain: B1 chain with A187C, C189A
B3: Bol2 (natural protein, S. cerevisiae, UniProt P53082 1-120, looked up)
chain: MTGERIEKVKINDEFAKSHFLTTQWRETKRQRHYKMPVTEQGLRERIESAIPQVYHIIVTDLSYGCGQSFDIVVVSDFFQGKSKLMRSRAVNKAVKEELQEIHAFSCKCYTEEEWSKIVV

What was measured:
[1] = molecular target: T1, [2Fe-2S]-Grx3-Bol2 heterodimer (Saccharomyces cerevisiae, UniProt P53082+Q03835); assay: Bradford, iron and acid-labile sulfide analysis; type: binding; conditions: cluster bridges Grx3 and Bol2; pH 8.0, 1 mM GSH, anaerobic
T1 sequence (Q03835 1-250): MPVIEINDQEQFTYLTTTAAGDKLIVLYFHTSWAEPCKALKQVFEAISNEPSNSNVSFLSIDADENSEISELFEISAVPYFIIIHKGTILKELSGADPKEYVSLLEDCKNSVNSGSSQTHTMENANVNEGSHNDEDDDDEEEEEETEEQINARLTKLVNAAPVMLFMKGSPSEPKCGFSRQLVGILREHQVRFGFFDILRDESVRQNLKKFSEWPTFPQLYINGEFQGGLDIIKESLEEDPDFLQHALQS
T1 sequence (P53082 1-120): B3 chain

[2] = molecular target: T2, [2Fe-2S]-Grx3-Bol2 heterodimer (S. cerevisiae, UniProt Q03835 1-250; P53082 1-120); assay: heparin chromatography co-elution
T2 sequence (looked up) 1: T1 sequence (Q03835 1-250)
T2 sequence (looked up) 2: B3 chain

[3] = molecular target: T3, Grx3 (S. cerevisiae, UniProt Q03835 1-250); assay: SEC
T3 sequence (looked up): T1 sequence (Q03835 1-250)

| Molecule | binding result [2] | further results |
| --- | --- | --- |
| [2Fe-2S] cluster | – | [2Fe-2S] cluster per heterodimer [1]: 0.9–1.05 per heterodimer |
| B1 | binds | – |
| B2 | binds | – |
| B3 | – | binding result [3]: binds |
